In patent US5405946A, “Recombinant protein S variants deficient in C4BP binding activity, compositions and therapeutic methods” (The Scripps Research Institute, priority 1992, dated 1995):
Where a chain is given by its changes, count along the chain named. Numbers in names are those of the source. Entries after “also recorded” stand apart in the source; their conditions may differ.

Assays:
C4BP = target: T1, C4BP (Homo sapiens, UniProt P20851); settings: PS association with C4BP in plasma; read-out: dissociation constant; cited from earlier work
T1 sequence (P20851 18-252): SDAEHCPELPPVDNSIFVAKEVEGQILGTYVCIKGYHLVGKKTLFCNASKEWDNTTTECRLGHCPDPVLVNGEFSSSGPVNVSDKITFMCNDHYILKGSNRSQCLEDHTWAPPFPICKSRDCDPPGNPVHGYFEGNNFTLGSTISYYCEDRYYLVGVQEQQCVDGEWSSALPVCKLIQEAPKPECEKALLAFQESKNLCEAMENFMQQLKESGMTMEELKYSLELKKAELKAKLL
T1 sequence (P04003 49-597 partner): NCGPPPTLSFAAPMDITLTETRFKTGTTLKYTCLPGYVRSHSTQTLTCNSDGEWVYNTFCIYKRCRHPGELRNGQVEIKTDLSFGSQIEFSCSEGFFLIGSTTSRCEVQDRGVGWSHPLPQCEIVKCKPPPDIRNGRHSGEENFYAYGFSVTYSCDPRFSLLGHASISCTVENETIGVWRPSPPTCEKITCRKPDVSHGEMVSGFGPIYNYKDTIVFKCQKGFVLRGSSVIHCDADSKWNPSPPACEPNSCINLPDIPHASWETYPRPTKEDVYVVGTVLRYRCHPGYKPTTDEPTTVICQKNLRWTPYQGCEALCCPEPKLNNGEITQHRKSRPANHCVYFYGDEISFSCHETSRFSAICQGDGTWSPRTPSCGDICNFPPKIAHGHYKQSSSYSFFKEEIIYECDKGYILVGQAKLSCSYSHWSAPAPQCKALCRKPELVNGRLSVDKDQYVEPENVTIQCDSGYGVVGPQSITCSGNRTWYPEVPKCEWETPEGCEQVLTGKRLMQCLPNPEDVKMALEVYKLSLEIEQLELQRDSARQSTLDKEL

[1] = target: T2, human C4b-binding protein (C4BP) (Homo sapiens, UniProt P20851); experiment: ELISA of complex formation between recombinant PS variant proteins and C4BP; settings: C4BP 1 ug/ml, 18 hours room temperature
T2 sequence (P20851 18-252): T1 sequence (P20851 18-252)
T2 sequence (P04003 49-597 partner): T1 sequence (P04003 49-597 partner)
Protocol: The complex formation between the recombinant PS variant proteins and C4BP was measured with a sensitive ELISA using C4BP and a peroxidase conjugated anti-PS antibody as described by Chang et al., Thromb. Haemost., 67:526-532 (1992). Briefly, IgG at a concentration of 10 ug/ml from monoclonal antibody 8C11, which is directed against the alpha chain of C4BP (Hessing et al., J. Immunol., 144:204-208 (1990)), was coated in 50 mM NaHCO3 at pH 9.6 overnight at 4C. onto polyvinyl microtiter plates (Costar, Cambridge, Mass.). After washing to remove the unbound IgGs, the wells were blocked with 1% (w/v) BSA in 50 mM Tris-HCl at pH 7.5 containing 150 mM NaCl and 5 mM CaCl2 for 1 hour at room temperature. C4BP, prepared as described by Hessing et al., supra, was allowed to bind for 2 hours with a final concentration of 1 ug/ml. Increasing amounts of recombinant PS proteins (E424K, Q427E, K429E, […] and K432E) and wild-type recombinant PS prepared in Example 1 were then added in concentrations ranging from 0-150 ng/ml and maintained for 18 hours at room temperature. Bound proteins were allowed to bind to rabbit anti-human PS IgG conjugated to peroxidase (Dakopatts, Glostrup, Denmark) at a concentration of 0.3 ug/ml for 2 hours at room temperature. After washing the wells to remove the unbound proteins, 100 ul of 0.1M sodium phosphate/0.2M sodium citrate at pH 5.0 containing 0.04% 1,2-phenylenediamine dihydrochloride and 0.015% hydrogen peroxide was added. The hydrolysis of phenylenediamine was stopped by adding 50 ul 2N sulfuric acid. The absorbance was measured at 490 nm using a Vmax plate reader (Molecular Devices Corp., Menlo Park, Calif.). The data represented the mean of duplicate determinations.
The binding of the of the thrombin domain recombinant PS variants to C4BP was determined. The complex formation between the recombinant proteins and C4BP was measured with a sensitive ELISA using anti-C4BP monoclonal antibody 8C11 lgG, purified C4BP and peroxidase conjugated anti-PS antibody as described in Example 2A.
Anti-C4BP monoclonal antibody 8C11 IgG was coated onto microtiter wells to catch C4BP (1 ug/ml). Increasing amounts (0-100 ng/ml) of recombinant PS or variants (R49L, R60L, R70I, R49L/R60L, R60L/R70I, R49L/R70I and R49L/R60L/R70I) were added. Binding to C4BP was for 18 hours at room temperature. Bound PS variants were detected with anti-PS IgG conjugated to peroxidase (0.3 ug/ml). The results are the mean of duplicate values in two different experiments.

thrombin [2] = target: T3, thrombin (Homo sapiens, UniProt P00734); experiment: Reduced SDS-PAGE of PS variants with thrombin treatment; assay type: biochemical; settings: reduced SDS gels
T3 construct: maintained with 1/20 vol (50 ul) of thrombin-Sepharose for 1 hour at 37C
Protocol: The purity and integrity of the recombinant PS variants was established by SDS-PAGE on 12.5% gradient gels according to Laemmli, Nature, 227:680-685 (1970) using the Phast system (Pharmacia Biotechnology, Sweden). After electrophoresis, the proteins were stained with silver nitrate or transferred onto Immobilon membranes for subsequent detection by Western blot analysis using rabbit anti-PS IgG conjugated to peroxidase (3 ug/ml).
For the thrombin-sensitive PS variant proteins, on reduced SDS gels, purified recombinant PS and the single and double variants all migrated as a doublet. […] The upper band of the doublet for recombinant PS and the single and double variants all could be converted into the lower band by thrombin treatment.

thrombin [3] = target: T3, thrombin; experiment: APC cofactor clotting assay after thrombin-Sepharose treatment of PS variants; assay type: biochemical
Protocol: (§1) An activated partial thromboplastin time clotting assay, using PS- and C4BP-depleted plasma, cephalin-kaolin reagent (Boehringer Mannhein, Indianapolis, Ind.), activated protein C (APC) and increasing amounts of recombinant PS variants was performed as described by Chang et al., Thromb. Haemost., 67:526-532 (1992). Briefly, to 50 ul PS and C4BP-depleted plasma (prepared as described by Koedam et al., J. Clin. Invest., 82:1236-1243 (1988)) was added 50 ul cephalin-kaolin reagent, 25 ul APC (Koedam et al., ibid) at 5 ug/ml and 15 to 45 ul recombinant PS variants (0-4 ug/ml) diluted in Michaelis buffer (28.5 mM sodium acetate, 28.5 mM sodium barbital and 116 mM NaCl, pH 7.35) and maintained for 3 minutes at 37C. Clotting was initiated by addition of 50 ul of 25 mM CaCl2 and the clotting time was measured in an Amelung-Coagulometer KC10.
(§2) The ability of the variants to serve as a cofactor for APC was tested in a clotting assay. The clotting assay was performed as described in Example 2D. To examine the effects of thrombin on recombinant PS variants APC cofactor activity, one ml of purified recombinant PS variants listed above and prepared in Example 1D (4-40 ug/ml) was maintained with 1/20 vol (50 ul) of thrombin-Sepharose for 1 hour at 37C. in 50 mM Tris-HCl pH 7.5 containing […]. Thrombin-Sepharose was removed by centrifugation. Supernatants containing the thrombin-treated PS were stored at -20C. until used.
(§3) The PS-dependent prolongation of the clotting time was measured in an activated partial thromboplastin time system using PS and C4BP depleted plasma, APC and cephalin-kaolin reagent as described in Example 2D. Increasing amounts of recombinant PS or the triple variant treated without or with thrombin were added. Clotting was initiated by the addition of CaCl2 and the clotting time was measured. The results are presented as the means of duplicate values.

[4] = target: activated protein C (APC) (Homo sapiens, UniProt P04070); experiment: Activated partial thromboplastin time clotting assay, APC cofactor activity in PS- and C4BP-depleted plasma; assay type: biochemical
Protocol: as §1, §2, §3

[5] = system: anti-PS monoclonal antibody LJ-56; experiment: Sandwich assay of LJ-56 reactivity to recombinant PS variant proteins; assay type: binding; settings: LJ-56 0-10 ug/ml
Protocol: Reactivity of LJ-56 to the recombinant PS variant proteins gave essentially the same results when a sandwich detecting assay was performed. In the sandwich assay, a fixed amount of recombinant PS variants produced in Example 1B1) (50 ng for E424K and 100 ng for wild type, Q427E and K429E) were added to wells previously coated with rabbit anti-PS IgG at 10 ug/ml in coating buffer and treated to block nonspecific binding sites as described above. Following a maintenance period for 18 hours at room temperature, the wells were washed with TBS and 100 ul of serial dilutions of anti-PS monoclonal antibody LJ-56 (0-10 ug/ml) was added and maintained for 2 hours at room temperature. Detection of the immunoreactant products was accomplished with rabbit anti-mouse IgG conjugated to peroxidase (1:1000). The hydrolysis of […] was measure at 490 nm using a Vmax plate reader as described in Example 2A.

Chain of activated protein C (APC) (P04070 212-461 limits assumed): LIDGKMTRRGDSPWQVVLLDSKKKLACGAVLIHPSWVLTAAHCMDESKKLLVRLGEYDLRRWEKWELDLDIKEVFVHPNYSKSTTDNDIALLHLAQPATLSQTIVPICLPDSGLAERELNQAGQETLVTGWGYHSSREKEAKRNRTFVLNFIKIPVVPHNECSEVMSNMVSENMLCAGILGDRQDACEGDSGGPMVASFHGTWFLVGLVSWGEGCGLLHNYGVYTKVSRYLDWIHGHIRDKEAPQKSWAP
Chain of activated protein C (APC) (P04070 43-197 limits assumed): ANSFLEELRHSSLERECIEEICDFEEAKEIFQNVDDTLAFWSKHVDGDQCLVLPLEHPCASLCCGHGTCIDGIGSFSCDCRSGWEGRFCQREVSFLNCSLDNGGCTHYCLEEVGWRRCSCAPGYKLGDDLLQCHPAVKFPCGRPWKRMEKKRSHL

PS: vitamin K-dependent protein of 75,000 molecular weight with 635 amino acid residues
Kd (C4BP): 1 to 5 nM

B1: R49L/R60L/R70I variant: recombinant protein S triple variant, arginines 49, 60 and 70 replaced by leucine or isoleucine (protein)
chain: ANSLLEETKQGNLERECIEELCNKEEAREVFENDPETDYFYPKYLVCLLSFQTGLFTAALQSTNAYPDLISCVNAIPDQCSPLPCNEDGYMSCKDGKASFTCTCKPGWQGEKCEFDINECKDPSNINGGCSQICDNTPGSYHCSCKNGFVMLSNKKDCKDVDECSLKPSICGTAVCKNIPGDFECECPEGYRYNLKSKSCEDIDECSENMCAQLCVNYPGGYTCYCDGKKGFKLAQDQKSCEVVSVCLPLNLDTKYELLYLAEQFAGVVLYLKFRLPEISRFSAEFDFRTYDSEGVILYAESIDHSAWLLIALRGGKIEVQLKNEHTSKITTGGDVINNGLWNMVSVEELEHSISIKIAKEAVMDINKPGPLFKPENGLLETKVYFAGFPRKVESELIKPINPRLDGCIRSWNLMKQGASGIKEIIQEKQNKHCLVTVEKGSYYPGSGIAQFHIDYNNVSSAEGWHVNVTLNIRPSTGTGVMLALVSGNNTVPFAVSLVDSTSEKSQDILLSVENTVIYRIQALSLCSDQQSHLEFRVNRNNLELSTPLKIETISHEDLQRQLAVLDKAMKAKVATYLGGLPDVPFSATPVNAFYNGCMEVNINGVQLDLDEAISKHNDIRAHSCPSVWKKTKNS
binding to C4BP ([1]; thrombin domain variants, 0-100 ng/ml, in the presence of calcium): unaltered affinity for binding to C4BP
conversion of upper band into lower band by thrombin (thrombin [2]): not converted into a lower band, indicating that this triple variant was resistant to thrombin
Clotting Time After Treatment (thrombin [3]; after thrombin treatment, concentration 1.19 ug/ml, without protein S 72 ± 2 seconds): 85 s
APC cofactor activity after treatment with thrombin (thrombin [3]; thrombin-Sepharose 1 hour at 37C): retained its APC cofactor activity; also recorded: remained unchanged; also recorded: completely resistant to inactivation by thrombin
Clotting Time ([4]; concentration 1.19 ug/ml, without protein S 72 ± 2 seconds): 84 s
APC cofactor activity ([4]; not treated with thrombin): higher APC cofactor activity (as defined by prolongation of the clotting time) than recombinant PS; also recorded: retained full APC cofactor activity

B2: K429E variant: recombinant human protein S with glutamic acid in place of lysine at position 429 (protein)
chain: B1 chain with L49R, L60R, I70R, K429E
recognition by LJ-56 [5]: not recognized
binding to C4BP ([1]; first disulfide loop variants, 0-150 ng/ml, calcium): failed to bind to C4BP at concentrations up to 50 ng/ml
Clotting Time ([4]; final conc. 1.8 ug/ml, basal clotting 80): 88 s
anticoagulant activity ([4]; in comparison with the basal clotting time of 80 seconds): anticoagulant activity increased linearly with increasing volumes of variant PS
clotting time at maximal inhibition of clotting ([4]; increasing amounts of variant): approximately 95 seconds
